Laboratory results as given in the supplement of paper PMC9112550, “Optimization of the antimicrobial peptide Bac7 by deep mutational scanning” (BMC Biology, 2022).

Test system: Escherichia coli TOP10
Assay: shrunken log2 fold change of peptide-encoding DNA abundance (4.5 h post-induction vs induction); higher = less antimicrobial activity (less host growth inhibition)
Details: time post-induction: 4.5 h; library: site-saturation at positions 5, 18, 19, 20
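Note: peptides expressed intracellularly from a pBAD plasmid library in pooled LB shake-flask culture, induced with 0.3% L-arabinose, DNA abundance read by NGS, three biological replicates, DESeq2 with apeglm shrinkage.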

Row | Sequence | shrunken log2 fold change
1 | RRIRDRPPRLPRPRPRPLPCPRP | 0.0544
2 | RRIRMRPPRLPRPRPRPVWHPRP | 0.137
3 | RRIRARPPRLPRPRPRPQTLPRP | 0.0847
4 | RRIRDRPPRLPRPRPRPIFYPRP | 0.0295
5 | RRIRHRPPRLPRPRPRPQFNPRP | -0.619
6 | RRIRRRPPRLPRPRPRPEWIPRP | 0.361
7 | RRIRSRPPRLPRPRPRPYWDPRP | -0.321
8 | RRIRQRPPRLPRPRPRPDCWPRP | -0.0539
9 | RRIRCRPPRLPRPRPRPEEMPRP | 0.028
10 | RRIRRRPPRLPRPRPRPSDAPRP | -0.0697
11 | RRIRNRPPRLPRPRPRPFVRPRP | -0.0373
12 | RRIRERPPRLPRPRPRPFEGPRP | -0.105
13 | RRIRSRPPRLPRPRPRPQSGPRP | -0.101
14 | RRIRNRPPRLPRPRPRPPLYPRP | -0.101
15 | RRIRCRPPRLPRPRPRPPWFPRP | -0.00887
16 | RRIRPRPPRLPRPRPRPYATPRP | -0.446
17 | RRIRIRPPRLPRPRPRPIEAPRP | -0.01
18 | RRIRERPPRLPRPRPRPGAIPRP | -0.187
19 | RRIRVRPPRLPRPRPRPANAPRP | -0.0677
20 | RRIRWRPPRLPRPRPRPKIIPRP | -0.0886
21 | RRIRKRPPRLPRPRPRPNMDPRP | -0.0504
22 | RRIRTRPPRLPRPRPRPNAAPRP | 0.371
23 | RRIRWRPPRLPRPRPRPTGAPRP | 0.337
24 | RRIRPRPPRLPRPRPRPCQVPRP | -0.132
25 | RRIRIRPPRLPRPRPRPLVMPRP | -1.56

Row | Sequence | shrunken log2 fold change
26 | RRIRYRPPRLPRPRPRPSQDPRP | -0.561
27 | RRIRNRPPRLPRPRPRPDPWPRP | 0.106
28 | RRIRVRPPRLPRPRPRPGRMPRP | 0.172
29 | RRIRGRPPRLPRPRPRPFAFPRP | 0.531
30 | RRIRKRPPRLPRPRPRPAVCPRP | 0.356
31 | RRIRQRPPRLPRPRPRPRYFPRP | -0.247
32 | RRIRQRPPRLPRPRPRPQSLPRP | -0.0818
33 | RRIRMRPPRLPRPRPRPQCKPRP | -0.0461
34 | RRIRHRPPRLPRPRPRPELIPRP | -0.0454
35 | RRIRHRPPRLPRPRPRPICHPRP | -0.265
36 | RRIRARPPRLPRPRPRPCHNPRP | -0.161
37 | RRIRCRPPRLPRPRPRPCALPRP | -0.213
38 | RRIRVRPPRLPRPRPRPPGYPRP | 0.0333
39 | RRIRNRPPRLPRPRPRPCTAPRP | 0.022
40 | RRIRKRPPRLPRPRPRPKKRPRP | 1.09
41 | RRIRGRPPRLPRPRPRPQQTPRP | 1.6
42 | RRIRHRPPRLPRPRPRPQHEPRP | -0.191
43 | RRIRDRPPRLPRPRPRPCGDPRP | 0.0915
44 | RRIRNRPPRLPRPRPRPNGSPRP | -0.0999
45 | RRIRRRPPRLPRPRPRPYGLPRP | -0.0176
46 | RRIRWRPPRLPRPRPRPLPGPRP | 0.215
47 | RRIRLRPPRLPRPRPRPAGGPRP | 0.169
48 | RRIRCRPPRLPRPRPRPPEMPRP | 0.67
49 | RRIRNRPPRLPRPRPRPYMSPRP | -0.019
50 | RRIRTRPPRLPRPRPRPNYDPRP | -0.493
